Some targets named below: CXCL9_HUMAN (human) (UniProt Q07325); CXCL12_HUMAN (human) (UniProt P48061); CXCL10_HUMAN (human) (UniProt P02778).
What all share (test): yeast surface display FACS re-test

Chain of CXCL9_HUMAN (human) (Q07325 23-125 limits assumed): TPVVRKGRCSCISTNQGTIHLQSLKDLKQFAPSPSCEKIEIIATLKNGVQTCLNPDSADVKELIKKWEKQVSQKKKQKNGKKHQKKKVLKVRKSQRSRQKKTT
Chain of CXCL12_HUMAN (human) (P48061 22-89 limits assumed): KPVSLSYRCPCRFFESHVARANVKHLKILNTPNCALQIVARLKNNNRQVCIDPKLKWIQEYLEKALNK
Chain of CXCL10_HUMAN (human) (P02778 22-98 limits assumed): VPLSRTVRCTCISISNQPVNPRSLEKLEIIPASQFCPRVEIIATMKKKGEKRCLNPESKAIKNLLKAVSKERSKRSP

Regarding “P458_IXORI (from UniProt A0A0K8R7D4 25-90)”, the % cells over threshold fluorescence with CXCL9_HUMAN (human) is 37%.
The substance “P1074_IXORI (from UniProt A0A0K8RDH6 29-96)” had a % cells over threshold fluorescence with CXCL9_HUMAN (human) of 35%.
Regarding “P1080_IXORI (from UniProt A0A090XBL6 20-118)”, the % cells over threshold fluorescence came out at 53% with CXCL12_HUMAN (human) and 49% in the assay with CXCL9_HUMAN (human).
“P1086_IXORI (from UniProt A0A0K8RK34 29-94)” came in with a % cells over threshold fluorescence in the assay with CXCL9_HUMAN (human) of 54%.
In the assay with CXCL12_HUMAN (human), “P1095_IXORI (from UniProt A0A0K8RCE3 24-112)” gave a % cells over threshold fluorescence of 47%.
As for “P1096_IXORI (from UniProt A0A0K8RKE4 24-114)”, the % cells over threshold fluorescence in the assay with CXCL10_HUMAN (human) came to 50%.
In the case of “P1100_IXORI (from UniProt A0A0K8R556 29-96)”, the % cells over threshold fluorescence with CXCL9_HUMAN (human) turned out to be 55%.
Still for that read-out and setting: the result for “P1124_IXORI (from UniProt A0A0K8RG61 29-83)” reads 31%.
Consider “P1134_IXORI (from UniProt A0A0K8RAI0 32-135)”, for which the % cells over threshold fluorescence with CXCL10_HUMAN (human) amounted to 66%.

The record behind these values is patent publication US20240034757A1.
